{"source": "patent US20210079092A1", "about": "(UNIVERSITY OF TOKYO, published 2021)", "key": {"[1]": {"biological_target": "T1, human CADM1 v9 fragment (human, UniProt Q9BY67-4 45-371)", "T1 construct": "Extracellular region of CADM1 v8/9 released from cells by protease cleavage; It was tested in, or purified from, the culture supernatant of SBC5 cells stably expressing CADM1 v8/9 (approximately 80 kDa, O-glycosylated region); also called v9 fragment of CADM1; CADM1 v8/9 fragment", "T1 sequence": "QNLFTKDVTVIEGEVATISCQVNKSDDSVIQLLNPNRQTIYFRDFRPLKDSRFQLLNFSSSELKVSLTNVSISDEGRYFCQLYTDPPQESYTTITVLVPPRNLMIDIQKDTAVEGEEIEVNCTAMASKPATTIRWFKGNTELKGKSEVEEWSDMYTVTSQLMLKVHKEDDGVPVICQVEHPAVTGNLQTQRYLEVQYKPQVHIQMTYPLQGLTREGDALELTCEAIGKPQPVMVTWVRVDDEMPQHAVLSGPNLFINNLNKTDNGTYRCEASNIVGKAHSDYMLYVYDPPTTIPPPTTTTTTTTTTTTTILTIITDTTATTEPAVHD", "test": "sandwich ELISA on culture supernatant, capture E9935, detection HRP-labeled F1222", "description": "(§1) PBS-T (137 mM NaCl, 8.1 mM […], 2.68 mM KCl, 1.47 mM KH₂PO₄, and 0.05% Tween 20) was used for washing twice, and […] of 1%/BSA (Wako Pure Chemical Industries, Ltd.)/PBS-T was added. The plate was left at rest at room temperature for 1 hour for blocking. The plate was washed with PBS-T twice, and thereafter, a standard for a calibration curve, a culture supernatant, and serum or pleural effusion were added, followed by incubation at room temperature for 1 hour. The plate was washed with PBS-T four times, and […] of the detection antibody diluted in 1% BSA/PBS-T to a concentration of 100 ng/mL was added, followed by incubation at room temperature for 1 hour. The plate was washed with PBS-T six times, and […] of TMB Soluble Reagent (ScyTek Laboratories) was then added for color development. […] of TMB Stop Buffer (ScyTek Laboratories) was further added to terminate the reaction. Finally, using an Ensight plate reader (PerkinElmer), the wavelength at 450 nm was measured.\n(§2) (A) The total amount of CADM1 fragment or other cells and (B) the amount of the CADM1 v9 fragment, secreted in the culture supernatant of SCLC were measured according to a sandwich ELISA method. As a capture antibody, the anti-CADM1 mouse monoclonal antibody E9935 was used. As detection antibodies, the anti-CADM1 antibody E9919 and the anti-CADM1 v8/9 antibody F1222, which were HRP-labeled, were used. […]"}, "[2]": {"biological_target": "T2, SEQ ID NO 29", "T2 construct": "Short fragment obtained by dividing the 13-aa immunogen peptide; also called divided peptide consisting of 7 amino acids", "T2 peptide": "TATTEPA", "test": "ELISA on coated peptide, HRP-labeled antibody", "description": "(§3) The anti-CADM1 v9 antibodies F1222 and F1315 were previously HRP-labeled using Peroxidase Labeling Kit-NH₂ (DOJINDO LABORATORIES), and epitopes were narrowed down according to an ELISA method. Peptide synthesis was outsourced to Toray Research Center, Inc. The peptide was dissolved in 10% DMSO/PBS to prepare a peptide solution having a concentration of 1 mg/mL. […] of the peptide diluted in a carbonate buffer to a concentration of […] was added to Nunc MaxiSorp 96-well plate (Thermo Fisher Scientific) and was left at rest at 4° C. overnight for immobilization. The plate was washed with PBS-T twice, and […] of 1%/BSA/PBS-T was added. The plate was left at rest at room temperature for 1 hour for blocking. The plate was washed with PBS-T twice, and […] of the HRP-labeled antibody diluted in 1% BSA/PBS-T to a concentration of 100 ng/mL was added, followed by incubation at room temperature for 1 hour. The plate was washed with PBS-T four times, and […] of TMB Soluble Reagent (ScyTek Laboratories) was then added for color development. […] of TMB Stop Buffer (ScyTek Laboratories) was further added to terminate the reaction. Finally, using the Ensight plate reader (PerkinElmer), the wavelength at 450 nm was measured.\n(§4) In order to narrow down the epitope of the anti-CADM1 v9 antibody, a peptide consisting of 13 amino acids in entire length (SEQ ID NO: 2) used as an immunogen, and peptides obtained by dividing the aforementioned peptide into short fragments (SEQ ID NOS: 28 to 30) were synthesized, and the reactivity of these peptides to the anti-CADM1 v9 antibody was studied using an ELISA method."}, "[3]": {"biological_target": "T3, SEQ ID NO 30", "T3 construct": "Short fragment obtained by dividing the 13-aa immunogen peptide; also called divided peptide consisting of 7 amino acids", "T3 peptide": "TEPAVHD", "test": "ELISA on coated peptide, HRP-labeled antibody", "description": "as §3, §4"}, "[4]": {"biological_target": "T4, SEQ ID NO 28", "T4 construct": "Short fragment obtained by dividing the 13-aa immunogen peptide; also called divided peptide consisting of 7 amino acids", "T4 peptide": "CDTTATT", "test": "ELISA on coated peptide, HRP-labeled antibody", "description": "as §3, §4"}, "[5]": {"biological_target": "T5, peptide CDTTATTEPAVHD (entire-length peptide of 13 amino acids used as an immunogen)", "T5 construct": "Synthetic peptide with an added N-terminal cysteine; It was KLH-coupled only for immunization", "T5 peptide": "CDTTATTEPAVHD", "test": "ELISA on coated peptide, HRP-labeled antibody", "description": "as §3, §4"}, "[6]": {"biological_target": "T1, human CADM1 v9 fragment", "test": "sandwich ELISA on culture supernatant, E9935 as capture antibody, detection HRP-labeled F1222", "description": "as §1, §2"}}, "data": [{"binder": "anti-CADM1 v9 antibody F1222 (antibody, V domains shown, Mouse monoclonal antibody from a hybridoma (Cadm1-/- Balb/c mice); It was HRP-labeled (Peroxidase Labeling Kit-NH2) in the sandwich and peptide ELISAs; also called anti-CADM1 v8/9 antibody F1222) VH: EVQLVESGGGLVQPKGSLKLSCAASGFTFNTYAMNWVRQAPGKGLEWVARIRSKSNYYTTYYADSVKDRFTISRDDSQSMLYLQMNNLKTEDTAMYYCIRQRHGNFYWGQGTLVTVSA VL: DIVLTQSPASLAVSLGQRATISCKASQSVDYDGYSYMNWYQQKPGQPPKLLIYAASNLESGIPARFSGSGSGTDFTLNIHPVEEEDAATYYCQQSNEDPPTFGAGTKLELK", "values": [{"measurement": "binding result", "setting": "[1]", "value": "binds"}, {"measurement": "binding result", "setting": "[2]", "value": "no binding (tested: 100 ng/mL antibody)"}, {"measurement": "binding result", "setting": "[3]", "value": "no binding (tested: 100 ng/mL antibody)"}, {"measurement": "binding result", "setting": "[4]", "value": "no binding (tested: 100 ng/mL antibody)"}, {"measurement": "binding result", "setting": "[5]", "value": "binds"}]}, {"binder": "anti-CADM1 mouse monoclonal antibody E9935 (antibody, V domains shown, Mouse monoclonal antibody from a hybridoma; It served as the capture antibody in the sandwich ELISA and, crosslinked to Protein A Sepharose, for purification; also called anti-CADM1 antibody E9935) VH: QVQLQQSGTELAKPGASVKMSCKASGYTFTHYWMHWVKQRPGQGLEWIGFINPGTGYTEYNQKFKDKATLTADKSSSTAYIQLSSLTSEDSAVYYCSRASYYSGSSHAWFGFWGQGTLVTVSA VL: DIVLTQSPASLAVSLGQRATISCKASQSVNYDGDNYMNWYQQKPGQPPKLLIYAASNLESGIPARFSGSGSGTDFTLNIHPVEEEDAATYYCQQSYEDPWTFGGGTKLEIK", "values": [{"measurement": "binding result", "setting": "[6]", "value": "binds"}]}]}
